Reference: patent publication US8841270B2, “Use of inhibitors of Zdhhc2 activity for modulation of adipogenesis” (Sanofi, priority 2009, dated 2014)

Key:
[1] = test system: C57BL/6J mice; test: Rimonabant treatment of high fat diet fed mice, glucose tolerance; format: in vivo, mouse; conditions: HFD C57BL/6J mice, rimonabant 10 mg·kg−1·day−1 for one month
From the text: C57BL/6J mice, which are obesity-prone (5), were fed for 6 months with a high fat diet (HFD).

[2] = test system: 3T3-L1 cells; test: Adipogenesis of retrovirally transduced 3T3-L1 cells (oil-red-O staining, aP2 mRNA by RT-PCR); format: cell-based, mouse
Experimental: 3T3-L1 cells were cultured in DMEM (Gibco) with 10% FBS (Gibco) at 5% CO2. After retroviral infection (see below), cells were allow to grow to confluence in either 100-mm or 60-mm dishes in DMEM with 10% FBS. Once confluence was reached, cells were exposed to differentiation medium containing dexamethasone (1 μM), insulin (5 μg/ml), and isobutylmethylxanthine ([…]) (DMI). After 2 days cells were maintained in medium containing insulin ([…]) until ready for harvest at 7 days.
After 7 to 10 days of differentiation, cells were washed once in PBS and fixed with formaldehyde (Formalde-fresh; Fisher) for 15 minutes. The staining solution was prepared by dissolving 0.5 g oil-red-0 in 100 ml of isopropanol; 60 ml of this solution was mixed with 40 ml of distilled water. After 1 hour at room temperature the staining solution was filtered and added to dishes for 4 hours. The staining solution was then removed and cells were washed twice with distilled water.
Retroviruses were constructed in the RNAi-Ready pSIREN-RetroQ ZsGreen (pSIREN Clontech). Viral constructs were transfected using calcium-phosphate method described in Jordan, M. et al. (2004) into 293 HEK packaging cells along with constructs encoding gag-pol and the VSV-G protein. […]

[3] = test system: Zdhhc2; test: shRNA knockdown of Zdhhc2 expression, mRNA by RT-PCR; format: cell-based, mouse; conditions: shRNA in pSIREN plasmid, tested in 293T HEK cells; mRNA by RT-PCR (FIG. 3A)
From the text: shRNAs were constructed using the RNAi-Ready pSIREN-RetroQ ZsGreen (Clontech). Target sequences for Zdhhc2 were designed by querying the Whitehead siRNA algorithm (http://jura.wi.mit.edu/bioc/siRNAext/) as well as the siRNA designer software from Clontech (http://bioinfo.clontech.com/rnaidesigner/); at least two sequences represented by both algorithms were subcloned into the pSIREN vectors (Clontech) using the EcoRI and BamH1 restriction sites. The following target sequences for Zdhhc2 were chosen SEQ ID NO. 5 and 6 as a negative control, we used the following siRNA sequence against luciferase: SEQ ID NO. 7.
The specificity of shRNAs was tested in 293T HEK cells co-transfected using calcium-Phosphate methods described in (14) with expression vectors containing Zdhhc2 cDNA and the RNAi-Ready pSIREN-RetroQ ZsGreen vector expressing either the shRNA against lucifeare (control shLUC) or Zdhhc2 (shZdhhc2). RT-PCR analysis was performed on cell RNA-extraction 24 h after transfection.
Total RNA was isolated from cultured cells using peqGOLD TriFast reagent according to the manufacturer's instructions (Axonlab). First strand cDNA was synthesized from 0.5 μg of total RNA using random primers and Superscript II (Invitrogen). […]
For the loss-of-function studies, shRNA specific for Zdhhc2 subcloned into a retroviral vector from Clontech were used (RNAi-Ready pSIREN-RetroQ ZsGreen or pSIREN). […]

With `Cc1c(C(=O)NN2CCCCC2)nn(-c2ccc(Cl)cc2Cl)c1-c1ccc(Cl)cc1` [rimonabant] as the molecule, how does the glucose tolerance [1] read?
The glucose tolerance was “normalized glucose tolerance”.

B1: shLuc: negative control shRNA directed against luciferase, SEQ ID NO. 7 (nucleic acid)
chain: GATCCGTGCGTTGCTAGTACCAATTCAAGAGATTGGTACTAGCAACGCACTTTTTTACGCGTG
B1 was tested. Which “inhibition of adipogenesis in vitro” value ([2]; 3T3-L1 cells, oil-red-O staining and aP2 expression at day 9) did it give?
The value was “no inhibition”.

B2: shZdhhc2-2: shRNA specific for Zdhhc2 in pSIREN retroviral vector; target sequence probably SEQ ID NO. 6 (nucleic acid)
DNA: GATCCGTATGAGCAACCCTGCATTTCAAGAGAATGCAGGGTTGCTCATACTTTTTTACGCGTG
What does the source list for B2?
knockdown of Zdhhc2 expression [3]: 50%; aP2 expression decreased ([2]; infected 3T3-L1 cells, day 9 of differentiation with DMI, RT-PCR): 60%
